{
  "source": "patent US11702469B2",
  "about": "“Recombinant EGFL7, EGFL7 antibodies, and uses thereof” (Ohio State Innovation Foundation, priority 2017, dated 2023)",
  "molecules": {"B1": {"name": "Parsatuzumab: Anti-human EGFL7 therapeutic antibody (Parsatuzumab) obtained from Creative Biolabs; blocking monoclonal antibody (antibody, chains of the INN, looked up, V domains shown)", "VH": "EVQLVESGGGLVQPGGSLRLSCAASGYTFIDYYMNWVRQAPGKGLEWVGDINLDNSGTHYNQKFKGRFTISRDKSKNTAYLQMNSLRAEDTAVYYCAREGVYHDYDDYAMDYWGQGTLVTVSS", "VL": "DIQMTQSPSSLSASVGDRVTITCRTSQSLVHINAITYLHWYQQKPGKAPKLLIYRVSNRFSGVPSRFSGSGSGTDFTLTISSLQPEDFATYYCGQSTHVPLTFGQGTKVEIK"}},
  "key": {"NICD": {"system": "NICD", "experiment": "NICD immunoblot in primary AML blasts", "assay_type": "cell-based, human", "conditions": "100 μg/ml, 2 hrs, n=3, vs IgG", "procedure": "FIG. 23A-23E. EGFL7 suppresses NOTCH signaling in human AML patient blasts. (FIG. 23A) Primary blasts from AML patients (n=3) were cultured in SFEM medium with 2% BSA in the presence or absence (Unstim) of 0.25 μM rEGFL7 for 4 h. Total proteins were extracted for immunoblotting of NICD (cleaved NOTCH1) with GAPDH as loading control. (FIG. 23B) Total RNA was extracted for quantitative real time (qRT-PCR) analysis of HES1 mRNA with β-ACTIN as internal control. *p<0.05 vs un-stimulated control (Unstim). (FIG. 23C) qRT-PCR for NOTCH2 mRNA at 4 h and 24 h after stimulation of primary AML blasts with 0.25 uM rEGFL7 or unstim controls. (FIG. 23D) Primary blasts from AML patients (n=3) were cultured in SFEM medium in the absence or presence of 100 μg/ml of normal IgG or anti-human EGFL7 antibody for 2 h. Total protein was extracted for immunoblotting of NICD with GAPDH as loading control. […] Total RNA was extracted for quantitative real time RT-PCR analysis of HES1 mRNA with β-ACTIN as internal control. *p<0.05, ***p<0.001 vs IgG.\nCells were lysed in 100 μl of Pierce RIPA buffer (Cat. #8990, Thermo Scientific) supplemented with protease and phosphatase inhibitors (Roche) on ice for 20 min. […] Immunoreactive bands were detected using ECL Select Western Blotting Detection Reagent (GE Healthcare). […]"}, "HES1": {"system": "HES1", "experiment": "DLL4-Fc coated plate NOTCH activation (HES1 qRT-PCR), THP-1", "assay_type": "cell-based, human", "conditions": "pre-treated 30 min: 10 μM AVA, 100 μg/ml anti-EGFL7 or 0.25 μM rEGFL7; then 4 h; vs DLL4-FC", "procedure": "FIG. 24A-24G. EGFL7 prevents activation of NOTCH signaling in AML cells. (FIG. 24A) Overview of experiments using DLL4-FC and IgG-FC control coated plates to induce NOTCH activation. (FIG. 24B) THP-1 cells were pre-treated with 10 μM γ-secretase inhibitor (AVA), 100 μg/ml anti-EGFL7 antibody or 0.25 μM rEGFL7 for 30 min, then transferred to IgG-Fc or DLL4-Fc coated plates. After 4 h of incubation total RNA from THP-1 cells was extracted for qRT-PCR analysis of HES1 with β-ACTIN as internal control. ^###P<0.001 DLL4-FC vs IgG-FC; ***P<0.001 DLL4+AVA, DLL4+rEGFL7, and DLL4+anti-EGFL7 vs DLL4-FC. (FIG. 24C) Primary AML blasts were pretreated with 10 μM γ-secretase inhibitor (AVA), 100 μg/ml anti-EGFL7 antibody or 0.25 μM rEGFL7 for 30 min, then transferred to IgG-Fc or DLL4-Fc coated plates. After 4 h of incubation, total RNA was extracted for RT-PCR analysis of HES1 mRNA with β-ACTIN as internal control. ^###P<0.001 DLL4-Fc vs IgG-Fc; *P<0.05, ***P<0.001 vs DLL4 Fc. THP-1 cells were treated with the indicated concentration of anti-EGFL7 (@E7) then assessed for apoptosis using (FIG. 24D) AnnexinV+ staining and FACS; *P<0.05 (FIG. 24E) Immuno-blotting for PARP1 and Casp3 cleavage. (FIG. 24F) Cell differentiation was assessed by CD11B and CD14 staining 96-hours post anti-EGFL7 treatments; *P<0.05. (FIG. 24G) To determine whether activation of NOTCH by DLL4-Fc could be accentuated by anti-EGFL7 treatment, THP-1 cells were first treated with anti-EGFL7 (100 μg/ml) and then cultured on DLL4-FC or IgG-Fc coated plates and then assessed for apoptosis using AnnexinV+ staining and FACS. *P<0.05 DLL4-Fc and anti-EGFL7; vs DLL4-FC+anti-EGFL7.\nTotal RNA was extracted using Trizol reagent (Invitrogen, Carlsbad, Calif., USA). cDNA was synthesized using SuperScript III reagents (Invitrogen) according to the manufacturer's instruction. Quantitative Real-Time RT-PCR was performed using commercially available TaqMan Gene Expression Assay primers and the 7900HT Fast Real-Time PCR System (Applied Biosystems, Foster City, Calif., USA). […]"}},
  "data": [
    {"molecule": "B1", "values": [
      {"measurement": "NICD levels", "setting": "NICD", "value": "significant increases in NICD levels"},
      {"measurement": "DLL4-Fc-mediated NOTCH activation (HES1)", "setting": "HES1", "value": "enhanced"}
    ]}
  ]
}
